What was measured:
recombinant VEGF3-114 [1] = molecular target: T1, recombinant VEGF3-114 (human, UniProt P15692 209-320); experiment: cell-based or functional assay
T1 sequence: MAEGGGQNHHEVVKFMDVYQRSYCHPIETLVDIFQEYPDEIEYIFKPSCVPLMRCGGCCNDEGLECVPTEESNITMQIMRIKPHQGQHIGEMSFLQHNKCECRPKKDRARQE

recombinant VEGF3-114 [2] = molecular target: T1, recombinant VEGF3-114; experiment: competitive ELISA: VC300 mAb equilibrated with soluble VEGF3-114, then added to wells coated with VEGF3-114
Description: The VC300 mAb was purified from mice ascites by ammonium sulfate precipitation and CM Sepharsoe chromatography (GE Healthcare, Piscataway, N.J.). The purified VC300 mAb was analyzed by 7.5% SDS-PAGE and the protein concentration was quantitated by the absorbance at 280 nm. Isotype determination of VC300 mAb was carried out by a monoclonal antibody isotyping kit I obtained from PIERCE (Rockford, Ill., USA). The dissociation constant (Kd) of antigen-antibody interaction was determined by competitive ELISA [Lin et al., (1997) Anal. Biochem., 254: 9-17]. In brief, the antigen, VEGF₃₋₁₁₄, at various concentrations was incubated with the antibody, VC300 mAb at 4° C. for overnight to reach equilibrium. The mixtures were transferred to the wells coated with 3 μg/ml of VEGF₃₋₁₁₄ and incubated at room temperature for 1 h. […] Absorbance at 450 nm was measured and the Kd value was calculated as described previously.

VEGF3-100 = molecular target: T2, VEGF3-100 (human, UniProt P15692 209-306); experiment: Western blot of E. coli lysates
T2 construct: Truncated VEGF fragment expressed in E. coli as a fusion protein detected by anti-penta-His
T2 sequence: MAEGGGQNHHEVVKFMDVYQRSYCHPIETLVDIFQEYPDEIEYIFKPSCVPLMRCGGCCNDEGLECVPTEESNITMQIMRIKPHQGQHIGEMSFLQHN
Description: (§1) To elucidate the binding epitope of VC300 mAb, the VEGF₃₋₁₁₄ (SEQ ID NO: 8) and five VEGF fragments, VEGF₃₋₃₃, VEGF₃₋₆₃, VEGF₃₋₉₃, VEGF₃₋₁₀₀, and VEGF₃₋₁₀₇ (see FIG. 1B), were used in the mapping. Nucleotide sequences of all these constructs were verified by DNA sequencing. Expression profiles of fusion proteins were analyzed by 12.5% SDS-PAGE and Western blot analysis with anti-penta-His monoclonal antibody (Qiagen, Valencia, Calif.). The lysates were used in verification of the binding epitope of VC300 mAb.
(§2) E. coli cells containing various truncated fragments of VEGF cDNA in expression vector were induced to express recombinant proteins with 0.4 mM isopropyl-β-D-thiogalactopyranoside (IPTG, Sigma-Aldrich, St. Louis, Mo.) at 37° C. for 3 h and the cells were harvested by centrifugation at 10,000 rpm for 2 min. The cell pellets were suspended and lysed with protein sample buffer, boiled for 10 min and analyzed by a 12.5% SDS-PAGE. For Western blot analysis, the gels were electroblotted onto PVDF membranes and the membranes were blocked with 5% skim milk in phosphate-buffered saline, pH 7.4 containing 0.05% Tween 20 at RT for 1 h, probed with a 1:1000 dilution of anti-penta-His monoclonal antibody or VC300 mAb followed by reaction with HRP-conjugated goat anti-mouse immunoglobulin (Chemicon Int., Temecula, Calif.). The binding reaction was detected by the addition of the diaminobenzidine (Sigma-Aldrich, St. Louis, Mo.) color development reagent, 0.05% diaminobenzidine, 0.005% hydrogen peroxide in 0.1 M Tris-HCl, pH 7.4.

VEGF3-93 = molecular target: T3, VEGF3-93 (human, UniProt P15692 209-299); experiment: Western blot of E. coli lysates
T3 construct: Truncated VEGF fragment expressed in E. coli as a fusion protein detected by anti-penta-His
T3 sequence: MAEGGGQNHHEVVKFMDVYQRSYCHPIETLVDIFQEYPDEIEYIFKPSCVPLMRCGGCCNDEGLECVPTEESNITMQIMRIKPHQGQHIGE
Description: as §1, §2

VEGF3-63 = molecular target: T4, VEGF3-63 (human, UniProt P15692 209-269); experiment: Western blot of E. coli lysates
T4 construct: Truncated VEGF fragment expressed in E. coli as a fusion protein detected by anti-penta-His
T4 sequence: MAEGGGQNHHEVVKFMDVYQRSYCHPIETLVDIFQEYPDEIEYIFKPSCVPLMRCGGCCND
Description: as §1, §2

VEGF3-33 = molecular target: T5, VEGF3-33 (human); experiment: Western blot of E. coli lysates
T5 construct: Truncated VEGF fragment expressed in E. coli as a fusion protein detected by anti-penta-His; Tested denatured in cell lysate by Western blot
T5 chain: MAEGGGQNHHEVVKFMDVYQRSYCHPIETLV
Description: as §1, §2

B1: VC300 mAb (antibody, IgG1, V domains shown)
VH: EIQLLQSGPELVKPGASVKISCKASGYSFTGYFMNWVMQSHGRTLEWIGRINPYTGETLYNQKFKDKATLTAEISSSTAHMELRSLASDDSAVYFCARRGYAGSGGIYSMDSWGPGTSVTVSS
VL: EIVLTQSPAIMSASLGERVTMTCTASSAVSSSYLHWYHQKPGSSPKLWIFSTSNLASGVPSRFTGSGSGTSYSLTISSVEAEDAATYYCHQYHRSPYTFGAGTKLELN
notes: Mouse hybridoma antibody (BALB/c), purified from mouse ascites; isotype determined to be IgG1; constant regions are not; also called anti-VEGF monoclonal antibody
IC50 of inhibition of VEGF-induced HUVEC proliferation (BrdU incorporation, 13.6 ng/ml VEGF3-114) (recombinant VEGF3-114 [1]): ~1 nM
Kd (recombinant VEGF3-114 [2]): ~2 nM
binding result (VEGF3-100): no binding (tested: 1:1000 dilution of VC300 mAb)
binding result (VEGF3-93): no binding (tested: 1:1000 dilution of VC300 mAb)
binding result (VEGF3-63): no binding (tested: 1:1000 dilution of VC300 mAb)
binding result (VEGF3-33): no binding (tested: 1:1000 dilution of VC300 mAb)

Reference: patent US20090269336A1 (TAIWAN LIPOSOME, published 2009)
